Numbering of substitutions follows the chain as printed. In names and notes the source's numbering stands.
T1: GST-FE65 PTB1 (bacterially expressed) (UniProt O00213 361-514)
T1 sequence (looked up): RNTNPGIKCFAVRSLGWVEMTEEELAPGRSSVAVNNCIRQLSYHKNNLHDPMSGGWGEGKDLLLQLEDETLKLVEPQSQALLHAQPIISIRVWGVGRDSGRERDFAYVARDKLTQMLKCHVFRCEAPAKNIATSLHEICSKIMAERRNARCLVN

T2: GST-FE65 PTB1 (mammalian, pCIneo-GST-FE65 PTB1) (human, UniProt O00213 361-514)
T2 sequence (looked up): T1 sequence (looked up)

B1: Myc/His-tagged wild-type ARF6 (natural protein, UniProt P62330 1-175, looked up)
chain: MGKVLSKIFGNKEMRILMLGLDAAGKTTILYKLKLGQSVTTIPTVGFNVETVTYKNVKFNVWDVGGQDKIRPLWRHYYTGTQGLIFVVDCADRDRIDEARQELHRIINDREMRDAIILIFANKQDLPDAMKPHEIQEKLGLTRIRDRNWYVQPSCATSGDGLYEGLTWLTSNYKS
B2: Myc/His-tagged ARF6 Q67L (natural protein, UniProt P62330 1-175, looked up)
chain: B1 chain with Q67L
B3: Myc/His-tagged ARF6 T27N (natural protein, UniProt P62330 1-175, looked up)
chain: B1 chain with T27N

Key:
[1] = biological target: T1, GST-FE65 PTB1 (bacterially expressed); experiment: pull-down
[2] = biological target: T2, GST-FE65 PTB1 (mammalian, …); experiment: pull-down

Binder	percent of input pulled down [1] [%]	percent of input pulled down [2] [%]
B1	12	
B2	0.7	2
B3	27	23

Source: article PMC4516155 (FASEB journal : official publication of the Federation of …, 2013)
